Measured values from PMC4720891.

Biological target: HA-Mdm2 (human) (UniProt Q00987)
Sequence (Q00987 whole entry): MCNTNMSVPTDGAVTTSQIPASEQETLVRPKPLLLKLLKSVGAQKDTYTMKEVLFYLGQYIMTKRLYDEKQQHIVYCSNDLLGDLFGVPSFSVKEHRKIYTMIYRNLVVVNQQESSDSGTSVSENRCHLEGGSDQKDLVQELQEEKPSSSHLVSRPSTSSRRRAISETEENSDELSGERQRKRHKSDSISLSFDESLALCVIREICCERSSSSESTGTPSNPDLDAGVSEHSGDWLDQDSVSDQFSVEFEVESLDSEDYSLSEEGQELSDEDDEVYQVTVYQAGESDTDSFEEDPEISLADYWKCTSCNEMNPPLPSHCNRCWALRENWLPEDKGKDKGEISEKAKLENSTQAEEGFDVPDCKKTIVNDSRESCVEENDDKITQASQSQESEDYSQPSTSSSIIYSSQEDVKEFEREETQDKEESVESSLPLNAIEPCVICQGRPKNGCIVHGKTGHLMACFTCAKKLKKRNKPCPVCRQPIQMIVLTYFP

B1: FLAG-MdmX (natural protein)
chain: MTSFSTSAQCSTSDSACRISPGQINQVRPKLPLLKILHAAGAQGEMFTVKEVMHYLGQYIMVKQLYDQQEQHMVYCGGDLLGELLGRQSFSVKDPSPLYDMLRKNLVTLATATTDAAQTLALAQDHSMDIPSQDQLKQSAEESSTSRKRTTEDDIPTLPTSEHKCIHSREDEDLIENLAQDETSRLDLGFEEWDVAGLPWWFLGNLRSNYTPRSNGSTDLQTNQDVGTAIVSDTTDDLWFLNESVSEQLGVGIKVEAADTEQTSEEVGKVSDKKVIEVGKNDDLEDSKSLSDDTDVEVTSEDEWQCTECKKFNSPSKRYCFRCWALRKDWYSDCSKLTHSLSTSDITAIPEKENEGNDVPDCRRTISAPVVRPKDAYIKKENSKLFDPCNSVEFLDLAHSSESQETISSMGEQLDNLSEQRTDTENMEDCQNLLKPCSLCEKRPRDGNIIHGRTGHLVTCFHCARRLKKAGASCPICKKEIQLVIKVFIA
  FRET (HTRF) signal of MdmX-stimulated Mdm2 autoubiquitination in vitro, against the baseline without MdmX; rises with MdmX concentration and with reaction time: 8 fold
